From doi:10.64898/2025.12.18.694329

What was measured:
[1] = target: SACSIN HEPN domain (recombinant, GST-tag removed) (human); experiment: native gel or EMSA
[2] = target: SACSIN HEPN domain (recombinant, GST-tag removed) (human); experiment: SEC

stoichiometry N [1]: 2
stoichiometry N [2]: 2
Substance: SACSIN HEPN domain (recombinant, GST-tag removed) (domain or fragment)
